Test results reported in US20250250357A1 (NANJING ZAIMING PHARMACEUTICAL, published 2025).

Key:
[1] = target: T1, human MSLN-R3-3 polypeptide (human); assay: ELISA on coated antigen, antibody 0.001 nM
T1 construct: also called human MSLN-R3-3 protein; hMSLN-R3-3
Experimental: (§1) The plate was sealed with a plastic film and incubated at 4° C. overnight. The next day, the plate was washed twice with PBST, and a blocking buffer [PBS+2% (w/w) BSA] was added for blocking at room temperature for 2 h. The blocking buffer was discarded, and a chimeric antibody or negative control antibody serially diluted from 100 nM was added at 50 μL/well. After incubation at 37° C. for 2 h, the plate was washed 3 times with PBST. […] After incubation at 37° C. for 2 h, the plate was washed 5 times with PBST. A TMB substrate was added at 50 μL/well for incubation at room temperature for 5-10 min, and then a stop solution (1.0 N HCl) was added at 50 μL/well.

[2] = target: T2, human MSLN-R2-his protein (human, UniProt Q13421 391-486); assay: ELISA on coated antigen, antibody 1 nM
T2 construct: Self-made in HEK293E cells; also called human MSLN-R2 protein; hMSLN-R2-his; not shown: His tag

[3] = target: T3, human MSLN-R3-his protein (human, UniProt Q13421 487-598); assay: ELISA on coated antigen, no antibody (column none)
T3 construct: Self-made in HEK293E cells; also called human MSLN-R3 protein; hMSLN-R3-his; not shown: His tag

[4] = target: T3, human MSLN-R3-his protein; assay: ELISA on coated antigen, antibody 0.001 nM
Experimental: as §1

[5] = target: T2, human MSLN-R2-his protein; assay: ELISA on coated antigen, antibody 10 nM
Experimental: as §1

[6] = target: T1, human MSLN-R3-3 polypeptide; assay: ELISA on coated antigen, antibody 0.1 nM
Experimental: as §1

[7] = target: T3, human MSLN-R3-his protein; assay: ELISA on coated antigen, antibody 0.01 nM
Experimental: as §1

[8] = target: T1, human MSLN-R3-3 polypeptide; assay: ELISA on coated antigen, antibody 10 nM
Experimental: as §1

[9] = target: T2, human MSLN-R2-his protein; assay: ELISA on coated antigen, no antibody (column none)
Experimental: as §1

[10] = target: T2, human MSLN-R2-his protein; assay: ELISA on coated antigen, antibody 0.1 nM
Experimental: as §1

[11] = target: T3, human MSLN-R3-his protein; assay: ELISA on coated antigen, antibody 1 nM
Experimental: as §1

[12] = target: T3, human MSLN-R3-his protein; assay: ELISA on coated antigen, antibody 0.1 nM
Experimental: as §1

[13] = target: T3, human MSLN-R3-his protein; assay: ELISA on coated antigen, antibody 10 nM
Experimental: as §1

[14] = target: T2, human MSLN-R2-his protein; assay: ELISA on coated antigen, antibody 0.01 nM
Experimental: as §1

[15] = target: T1, human MSLN-R3-3 polypeptide; assay: ELISA on coated antigen, antibody 100 nM
Experimental: as §1

[16] = target: T1, human MSLN-R3-3 polypeptide; assay: ELISA on coated antigen, antibody 0.0001 nM
Experimental: as §1

[17] = target: T2, human MSLN-R2-his protein; assay: ELISA on coated antigen, antibody 0.0001 nM
Experimental: as §1

[18] = target: T1, human MSLN-R3-3 polypeptide; assay: ELISA on coated antigen, no antibody (column none)
Experimental: as §1

[19] = target: T2, human MSLN-R2-his protein; assay: ELISA on coated antigen, antibody 100 nM
Experimental: as §1

[20] = target: T3, human MSLN-R3-his protein; assay: ELISA on coated antigen, antibody 0.0001 nM
Experimental: as §1

[21] = target: T1, human MSLN-R3-3 polypeptide; assay: ELISA on coated antigen, antibody 0.01 nM
Experimental: as §1

[22] = target: T3, human MSLN-R3-his protein; assay: ELISA on coated antigen, antibody 100 nM
Experimental: as §1

[23] = target: T2, human MSLN-R2-his protein; assay: ELISA on coated antigen, antibody 0.001 nM
Experimental: as §1

[24] = target: T1, human MSLN-R3-3 polypeptide; assay: ELISA on coated antigen, antibody 1 nM
Experimental: as §1

[25] = target: T4, human MSLN-FL-his protein (human, UniProt Q13421 296-580); assay: ELISA on coated antigen, antibody 100 nM
T4 construct: Self-made in HEK293E cells; also called human MSLN full-length protein; hMSLN-FL-his; not shown: His tag

[26] = target: T5, human MSLN-R1-his protein (human, UniProt Q13421 296-390); assay: ELISA on coated antigen, antibody 0.001 nM
T5 construct: Self-made in HEK293E cells; also called human MSLN-R1 protein; hMSLN-R1-his; not shown: His tag
T5 chain: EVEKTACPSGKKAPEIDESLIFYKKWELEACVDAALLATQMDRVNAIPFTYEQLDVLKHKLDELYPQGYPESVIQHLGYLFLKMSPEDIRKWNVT

[27] = target: T4, human MSLN-FL-his protein; assay: ELISA on coated antigen, antibody 0.001 nM
Experimental: as §1

[28] = target: T4, human MSLN-FL-his protein; assay: ELISA on coated antigen, no antibody (column none)
Experimental: as §1

[29] = target: T5, human MSLN-R1-his protein; assay: ELISA on coated antigen, antibody 100 nM
Experimental: as §1

[30] = target: T5, human MSLN-R1-his protein; assay: ELISA on coated antigen, antibody 1 nM
Experimental: as §1

[31] = target: T5, human MSLN-R1-his protein; assay: ELISA on coated antigen, antibody 0.01 nM
Experimental: as §1

[32] = target: T4, human MSLN-FL-his protein; assay: ELISA on coated antigen, antibody 0.01 nM
Experimental: as §1

[33] = target: T5, human MSLN-R1-his protein; assay: ELISA on coated antigen, antibody 0.0001 nM
Experimental: as §1

[34] = target: T5, human MSLN-R1-his protein; assay: ELISA on coated antigen, antibody 10 nM
Experimental: as §1

[35] = target: T5, human MSLN-R1-his protein; assay: ELISA on coated antigen, antibody 0.1 nM
Experimental: as §1

[36] = target: T4, human MSLN-FL-his protein; assay: ELISA on coated antigen, antibody 1 nM
Experimental: as §1

[37] = target: T5, human MSLN-R1-his protein; assay: ELISA on coated antigen, no antibody (column none)
Experimental: as §1

[38] = target: T4, human MSLN-FL-his protein; assay: ELISA on coated antigen, antibody 10 nM
Experimental: as §1

[39] = target: T4, human MSLN-FL-his protein; assay: ELISA on coated antigen, antibody 0.1 nM
Experimental: as §1

[40] = target: T4, human MSLN-FL-his protein; assay: ELISA on coated antigen, antibody 0.0001 nM
Experimental: as §1

T4 sequence (Q13421 other isoform, or with tags, fused parts or gaps): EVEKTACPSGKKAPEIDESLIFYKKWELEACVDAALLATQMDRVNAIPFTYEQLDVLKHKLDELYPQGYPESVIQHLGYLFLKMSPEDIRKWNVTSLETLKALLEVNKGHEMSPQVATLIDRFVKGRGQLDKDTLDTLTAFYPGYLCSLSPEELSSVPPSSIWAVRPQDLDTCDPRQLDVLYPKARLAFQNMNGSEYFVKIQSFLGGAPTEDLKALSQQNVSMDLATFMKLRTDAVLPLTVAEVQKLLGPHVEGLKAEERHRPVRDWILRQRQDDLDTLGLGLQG
T3 sequence (Q13421 495-606): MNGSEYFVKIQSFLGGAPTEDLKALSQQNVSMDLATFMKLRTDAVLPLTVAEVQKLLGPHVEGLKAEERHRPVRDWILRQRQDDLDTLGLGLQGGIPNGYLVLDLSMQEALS
T2 sequence (Q13421 other isoform, or with tags, fused parts or gaps): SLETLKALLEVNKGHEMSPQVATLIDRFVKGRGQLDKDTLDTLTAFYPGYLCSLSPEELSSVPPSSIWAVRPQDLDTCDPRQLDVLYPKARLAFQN

Binder | OD450 [1] [OD450] | OD450 [2] [OD450] | OD450 [3] [OD450] | OD450 [4] [OD450] | OD450 [5] [OD450] | OD450 [6] [OD450] | OD450 [7] [OD450] | OD450 [8] [OD450] | OD450 [9] [OD450] | OD450 [10] [OD450] | OD450 [11] [OD450] | OD450 [12] [OD450] | OD450 [13] [OD450] | OD450 [14] [OD450] | OD450 [15] [OD450] | OD450 [16] [OD450] | OD450 [17] [OD450] | OD450 [18] [OD450] | OD450 [19] [OD450] | OD450 [20] [OD450] | further results
S009-F2.39.3 (antibody, human IgG1, kappa, V domains shown, Human-murine chimeric antibody: murine VH/VL on human IgG1 heavy and kappa light constant regions) VH: QVQLQQPGTELVKPGASVKLSCKASGYTFTNYWMHWVKQRPGQGLEWIGNINPSSGDSYYNERFMSKAKMTVDKSSSTAYMQLSSLTSEDSAVYYCARSGGLWLAFWGPGTLVTVSA VL: DIVMTQSPSSLAMSVGQKVTMSCKSSQTLLNSVSQNNYLAWYQQKPGQSPTLLVYFASTRESGVPDRFIGGGSGTDFTLTISSVQAEDLADYFCQQHYRTPYTFGGGTNLEIKR | 0.05 | 0.05 | 0.05 | 0.05 | 0.05 | 0.05 | 0.05 | 0.05 | 0.06 | 0.05 | 0.25 | 0.07 | 0.98 | 0.05 | 0.05 | 0.05 | 0.05 | 0.05 | 0.06 | 0.05 | OD450 [21]: 0.05 OD450; OD450 [22]: 1.84 OD450; OD450 [23]: 0.05 OD450; OD450 [24]: 0.05 OD450
S009-F2.47.1 (antibody, human IgG1, kappa, V domains shown, Human-murine chimeric antibody: murine VH/VL on human IgG1 heavy and kappa light constant regions) VH: QVQLQQPGAELVKPGASVKLSCKASGYTFTSYWMHWVKQRPGQGLEWIGMIHPNSGSTNYNEKFKSKATLTVDKSSSTAYMQLSSLTSEDSAVYYCARPVVPYWYFDVWGTGTTVTVSS VL: DIVMTQSQKFMSTTVGDRVSITCKASQNVGTAVAWYQQKPGQSPKLLIYSASNRYTGVPDRFTGSGSGTDFTLTISNMQSEDLADYFCQQSSSYPLTFGAGTKLELKR | 0.06 | 0.05 | 0.05 | 0.05 | 0.05 | 0.06 | 0.05 | 0.06 | 0.06 | 0.05 | 0.05 | 0.05 | 0.05 | 0.05 | 0.06 | 0.05 | 0.05 | 0.06 | 0.06 | 0.05 | OD450 [21]: 0.05 OD450; OD450 [22]: 0.06 OD450; OD450 [23]: 0.05 OD450; OD450 [24]: 0.05 OD450
S009-F2-56.12 (antibody, human IgG1, kappa, V domains shown, Human-murine chimeric antibody: murine VH/VL on human IgG1 heavy and kappa light constant regions) VH: DVQLQESGPGMVKPSQSLSLTCTVTGYSITSGYDWHWIRHFPGNKLEWMGYISYSGSTNYNPSLKSRISITHDTSKNHFFLKLKSVTTEDTATYYCARGTGPDYWGQGTTLTVSS VL: DIVMTQSQKFMSTSVGDRVSITCKASQNVRTAVAWYQQKPGQSPKALIHLPSNRHTGVPDRFTGSGSGTDFTLTISNVQSEDLADYFCLQHWNYPLTFGGGTKLEIKR | 0.06 | 0.06 | 0.06 | 0.05 | 0.07 | 0.06 | 0.05 | 0.07 | 0.07 | 0.06 | 0.06 | 0.05 | 0.07 | 0.06 | 0.14 | 0.06 | 0.06 | 0.07 | 0.17 | 0.05 | OD450 [21]: 0.05 OD450; OD450 [22]: 0.13 OD450; OD450 [23]: 0.06 OD450; OD450 [24]: 0.06 OD450
S009-F2.58.8 (antibody, human IgG1, kappa, V domains shown, Human-murine chimeric antibody: murine VH/VL on human IgG1 heavy and kappa light constant regions) VH: QVQLLQSGAELAKPGASVKLSCKASGYTFTSYWVHWVKQRPGQGLEWIGYINPNSGYTKYNQKFKDKATLTADKSSSTAYMQLSSLTYEDSAVYYCADHYYGSSRDYFDYWGQGTTLTVSS VL: QIVLTQSPAIMSASPGEKVTMTCSASSSVSYMYWYQQRPGSSPRLLIYDTSNLASGVPVRFSGSGSGTSYSLTISRMEAEDAATYYCQQWNSYPYTFGGGTKLEIKR | 0.06 | 2.04 | 0.05 | 0.05 | 2.43 | 0.06 | 0.05 | 0.06 | 0.06 | 0.63 | 0.05 | 0.05 | 0.05 | 0.12 | 0.07 | 0.05 | 0.05 | 0.06 | 2.63 | 0.05 | OD450 [21]: 0.06 OD450; OD450 [22]: 0.07 OD450; OD450 [23]: 0.06 OD450; OD450 [24]: 0.06 OD450
S009-F3.7.3 (antibody, human IgG1, kappa, V domains shown, Human-murine chimeric antibody: murine VH/VL on human IgG1 heavy and kappa light constant regions) VH: EVNFEESGGGLVQPGGSMKLSCVASGFTFSNYWMNWVRQSPEKGLEWVAQIRLKSDNYATHYAESVKGRFTISRDDFKSSVYLQMNNLRAEDTGIYYCTVGTGGYWGQGTTLTVSS VL: DIVLTQSPASLAMSLGKRATISCRASESVSIVGTNVIHWFQQKPGQPPKLLIYHASNLETGVPARFSGSGSGTDFTLTIDPVEEDDVAIYHCLQSRKIPWTFGGGTKLEIKR | – | – | – | – | – | – | – | – | – | – | – | – | – | – | – | – | – | – | – | – | OD450 [25]: 0.13 OD450; OD450 [26]: 0.07 OD450; OD450 [27]: 0.06 OD450; OD450 [28]: 0.08 OD450; OD450 [29]: 0.12 OD450; OD450 [30]: 0.07 OD450; OD450 [31]: 0.06 OD450; OD450 [32]: 0.07 OD450; OD450 [33]: 0.07 OD450; OD450 [34]: 0.08 OD450; OD450 [35]: 0.07 OD450; OD450 [36]: 0.07 OD450; OD450 [37]: 0.08 OD450; OD450 [38]: 0.08 OD450; OD450 [39]: 0.07 OD450; OD450 [40]: 0.06 OD450
